Data published in PMC7946437, “Cardiolipin targets a dynamin-related protein to the nuclear membrane” (eLife, 2021).
Positions count from the first letter of the chain named. Numbers in names are those of the source.

B1: Tetrahymena dynamin-related protein 6 (Drp6), N-terminal histidine-tagged (natural protein, Tetrahymena thermophila, UniProt Q38KF5 1-710, looked up)
chain: MTNTIVPANNFQNIKEVIKVVNKLRDFGIESDKIQLPKIVVIGVQSSGKSSLLEQIVQLDFLPRGTGVVTRCPLEIRLIEVTNQDSDFKPYAYFFEERQKIFHDFELVKKEIQKITNDFAGPGKKIVDKVITLTIYQAQCPTLTLIDLPGMTLNSVGDQKDIERVTQDMTKKYIIEKTTIILCVIPINQDLENSLALNLARSVDENGERTIGVLTMIDIMNPGTNCENVLKNRQIPLLHRYYGMKPRSQKDINENVSVQEAIQREQLYFTSHQIYSMYPEYTGTNALTNKLSTLLDSHIRTFLPSIHKKIKMTLSERIKERQQLGNEFPTEVTQQLYELTNIINTSLNLFKQAMTNYDASEIQNIGKIKVDERVGKSYADFLFDKYLLICKKISEEQVFKVKMKDLIKELGKFRVQVNGFLPFEVFESQIKQKINLYETEAIVILEQLKEHVRKVLNHCIDLFPFPNNKIKKIMQDILQNFVQTEYNFTSSHIKTAFYCYKDCICSKMIDIHETESKLKQNHVYLQNDNQQKKVLYEYISKNKSFMEWTVQEIMIKAENLCNVPITMSDLQNTYTKAEEKVQNTDEVLRYSIIYYKYMDNFRKQISDQIPQCIQSLFINSLCKNLMVKVFQAIQSKEYKEIIEKNLKEDEIIATKRAKVIQSIQKLAKANDRLERLIDQGQNCNHMLSTTYGDEENYIHESLEDSDGIDD
notes: Dynamin-related protein 6 (Drp6) of Tetrahymena thermophila; the text calls the His-tagged protein the full-length protein; pRSETB vector; also called His-drp6; WT; source: E. coli C41(DE3), purified (Ni-NTA agarose); not shown: histidine tag, N-terminal, kept
B2: Drp6-I553A, N-terminal histidine-tagged (natural protein, Tetrahymena thermophila, UniProt Q38KF5 1-710, looked up)
chain: B1 chain with I553A
notes: Dynamin-related protein 6 (Drp6) of Tetrahymena thermophila with I553A, made by site-directed mutagenesis of the His-drp6 construct; pRSETB vector; same limits as His-drp6 are likely (point mutant of that construct); also called His-drp6-I553A; I553A-Drp6; source: E. coli C41(DE3), purified (Ni-NTA agarose); not shown: histidine tag, N-terminal, kept
B3: Drp6-I553M, N-terminal histidine-tagged (natural protein, Tetrahymena thermophila, UniProt Q38KF5 1-710, looked up)
chain: B1 chain with I553M
notes: Dynamin-related protein 6 (Drp6) of Tetrahymena thermophila with I553M, made by site-directed mutagenesis of the His-drp6 construct; pRSETB vector; same limits as His-drp6 are likely (point mutant of that construct); also called His-drp6-I553M; source: E. coli C41(DE3), purified (Ni-NTA agarose); not shown: histidine tag, N-terminal, kept

Experiments:
Drp6 (His-drp6) = molecular target: T1, Drp6 (His-drp6) (Tetrahymena thermophila, UniProt Q38KF5, I553A); experiment: Malachite Green phosphate release (BIOMOL Green); type: biochemical; conditions: 1 mM GTP, 1 µM protein, 25 mM HEPES pH 7.5, 15 mM KCl, 2 mM MgCl2, 37°C
T1 construct: full length aa 1-710, N-terminal His tag (pRSETB), expressed in E. coli C41(DE3), Ni-NTA; higher-order oligomer (at least six monomers)
T1 sequence (Q38KF5 entry or part of it I553A): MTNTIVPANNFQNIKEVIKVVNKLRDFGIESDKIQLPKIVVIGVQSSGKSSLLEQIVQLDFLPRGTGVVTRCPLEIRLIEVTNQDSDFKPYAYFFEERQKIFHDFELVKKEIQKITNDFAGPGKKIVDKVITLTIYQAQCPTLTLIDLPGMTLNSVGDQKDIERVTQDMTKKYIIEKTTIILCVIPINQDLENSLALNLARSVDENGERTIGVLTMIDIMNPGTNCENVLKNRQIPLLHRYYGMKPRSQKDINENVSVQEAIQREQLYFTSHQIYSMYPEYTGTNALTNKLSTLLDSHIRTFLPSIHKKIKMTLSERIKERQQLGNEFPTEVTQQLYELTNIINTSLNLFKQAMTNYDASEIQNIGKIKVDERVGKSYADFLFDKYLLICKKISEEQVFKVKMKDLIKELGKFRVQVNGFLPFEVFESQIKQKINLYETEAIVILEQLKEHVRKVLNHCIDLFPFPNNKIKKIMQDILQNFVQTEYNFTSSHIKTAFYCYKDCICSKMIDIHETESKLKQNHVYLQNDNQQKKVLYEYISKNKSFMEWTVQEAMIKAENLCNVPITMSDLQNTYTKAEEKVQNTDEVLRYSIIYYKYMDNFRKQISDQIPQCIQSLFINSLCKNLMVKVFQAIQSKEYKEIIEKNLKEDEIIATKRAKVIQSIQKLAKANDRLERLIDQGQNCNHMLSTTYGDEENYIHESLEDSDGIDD

[1] = molecular target: the molecule itself; experiment: SEC; Superdex 200 GL 10/300; 500 µl of protein (0.5 mg/ml) in buffer A, 0.5 ml/min, absorbance at 280 nm; self-assembly into higher order oligomers
[2] = substrate: Nc1nc2c(ncn2[C@@H]2O[C@H](COP(=O)(O)OP(=O)(O)OP(=O)(O)O)[C@@H](O)[C@H]2O)c(=O)[nH]1; experiment: Malachite Green phosphate release (BIOMOL Green); type: biochemical, Tetrahymena thermophila; conditions: 25 mM HEPES pH 7.5, 15 mM KCl, 2 mM MgCl2, 37°C, 10 min, GTP 50-2000 µM

Molecule	Malachite Green phosphate release (BIOMOL Green) (Drp6 (His-drp6))	stoichiometry N [1] [monomers]	Km [2] [µM]	binding result [1]
Nc1nc2c(ncn2[C@@H]2O[C@H](COP(=O)(O)OP(=O)(O)OP(=O)(O)O)[C@@H](O)[C@H]2O)c(=O)[nH]1 [GTP]	does not affect its activity as assessed by the rate of GTP hydrolysis	–	–	–
B1	–	≥ 6	180	–
B2	–	–	–	binds
B3	–	–	384	binds
